The test has as its target T1, human ILT5 on the surface of peripheral blood cells (PBMC subsets, APCs) (human, UniProt O75022 24-631).
T1 construct: whole, on cells; also called surface ILT5; Immunoglobulin-like transcript 5
Put plainly: flow cytometry, staining of human PBMCs. The text has this: Peripheral blood mononuclear cells (PBMCs) from healthy human blood donors were stained with a murine monoclonal antibody (TRX585) comprising a heavy chain variable region comprising the amino acid sequence of SEQ ID NO: 2 or SEQ ID NO: 3, and a light chain variable region comprising the amino acid sequence of SEQ ID NO: 1. Sequencing analysis of the heavy chain variable region was inconclusive as to whether the first amino acid residue was D or E. As the two amino acids are very similar and the first residue is not in a CDR, it is highly likely that VH with D or E at the first position would have very similar if not the same ILT5-binding properties. PBMCs were also stained with antibodies specific for defined hematopoietic cell lineages and analyzed for ILT5 expression by flow cytometry.

T1 sequence (O75022 24-631): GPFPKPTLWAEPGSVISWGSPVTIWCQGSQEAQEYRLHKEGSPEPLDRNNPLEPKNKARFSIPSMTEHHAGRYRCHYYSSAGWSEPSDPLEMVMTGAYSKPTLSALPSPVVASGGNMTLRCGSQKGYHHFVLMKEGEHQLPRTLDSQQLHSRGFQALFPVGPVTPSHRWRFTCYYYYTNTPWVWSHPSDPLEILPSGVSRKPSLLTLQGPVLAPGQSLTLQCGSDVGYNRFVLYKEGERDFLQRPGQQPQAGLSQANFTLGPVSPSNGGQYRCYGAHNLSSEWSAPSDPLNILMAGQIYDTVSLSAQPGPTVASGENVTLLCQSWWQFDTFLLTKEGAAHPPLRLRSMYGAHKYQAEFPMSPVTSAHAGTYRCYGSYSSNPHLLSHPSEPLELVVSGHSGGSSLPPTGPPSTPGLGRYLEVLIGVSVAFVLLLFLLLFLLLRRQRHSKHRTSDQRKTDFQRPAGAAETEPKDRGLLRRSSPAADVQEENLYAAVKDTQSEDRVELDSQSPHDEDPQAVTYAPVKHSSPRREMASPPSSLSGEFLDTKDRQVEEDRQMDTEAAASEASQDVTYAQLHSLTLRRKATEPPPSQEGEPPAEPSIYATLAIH

B1: TRX585 mouse anti-human ILT5 monoclonal antibody (8G6 mAb, IgG1, kappa) (antibody, V domains shown)
VH: DVQLQESGPGLVKPSQSLFLTCSVTGYSISSSYYWNWIRQFPGNKLEWMGYISFDGSNNYNPSLKNRISITRDTSKNQFFLKLNSVTTEDTATYYCAREKENYYGSSFYYFDYWGLGTSLTVSS
VL: DIQMTQSPASLSVSVGETVTITCRASENIYSNLAWYQQKQGKSPQVLVYAATNLADGVPSRFSGSGSGTQFSLKINSLQSEDFGNYFCQHFWRIPWTFGGGTKLEIK
notes: Murine IgG1, kappa purified from hybridoma supernatant; also called TRX585 antibody; TRX585 mAb
For the molecule B1, the binding result was “binds”.

Values taken from patent US20170158765A1 (Merck Sharp & Dohme, published 2017).
